Values belong to the molecule of their own block, whether it stands above or below them.
How the values were obtained:
QsGH13 = molecular target: T1, QsGH13 (Qipengyuania seohaensis, UniProt A0A8X6EH34); experiment: residual activity, p-nitrophenol release, absorbance […] nm; type: biochemical; conditions: product tolerance test, 2 M glucose, substrate pNPαGlu, 20 mM Gly-NaOH pH 10.0, 45 °C
T1 construct: N-terminal His6-SUMO tag cut off with Ulp1; expressed in E. coli BL21(DE3) from pSMT3; dimer; primers encode N-terminus MSGKLP and C-terminus ILETDT (translated from primers)

[1] = molecular target: α-glucosidase QsGH13 from Qipengyuania seohaensis sp. SW-135 (Qipengyuania seohaensis sp. SW-135); experiment: crystal structure; QsGH13 at 10 mg/ml, hanging drop vapour diffusion at 4°C, 0.1 M Tris-HCl pH 8.5, 0.2 M NaCl, 20% PEG 3,350; space group P212121, two monomers per asymmetric unit
purified protein = substrate: O=[N+]([O-])c1ccc(O[C@H]2O[C@H](CO)[C@@H](O)[C@H](O)[C@H]2O)cc1; experiment: purified protein; conditions: pH 10.0 (20 mM Gly-NaOH), 45 °C, 0.025-2.0 mM substrate

Molecule: OC[C@H]1OC(O)[C@H](O)[C@@H](O)[C@@H]1O (stereo partly drawn) [glucose]
% activity retained at 2 M (QsGH13): 30%

stoichiometry N [1]: 2
Molecule: α-glucosidase QsGH13 from Qipengyuania seohaensis sp. SW-135 (enzyme)

B1: QsGH13 (Qipengyuania seohaensis) (protein)
chain: MSGKLPWWKGAVIYQIYPRSFMDSNGDGIGDLPGIAQRLPHIAELGADAIWISPFFKSPMKDFGYDVSDYCDVDPIFGTLEDFDAVIARSHELGLKVLIDQVYSHTSDDHEWFAESRSNRDNPKAEWYVWADAKPDGSPPSNWQSVFGGPAWTWDARRGQYYLHNFLSSQPQLNLHNREAQQAVLDVMRFWLERGVDGFRIDALNFAMHDPQLRDNPPAPPTDKQRTRPFDFQLKTYNQSHADIPAFIERIRALTDEFDGIFTVAEVGGDDAVREMKAFTEGETHLNSAYGFNFLYAEALTPQLVCSALAEWPEEPDLGWPSWAFENHDAPRALSRWCTPEDRQAFARLKTLLLMSLRGNAILYYGEELGLTQVDIPFDQLHDPEAIANWPLTLSRDGARTPMPWDDSECAGFGSTAPWLPVGDDNRPRSVAAQLGDANSLLKFTRQAIALRKANPALHHGHVVECNHDGDLLELVREAGGQRLRCRFNLGSKPVECDDCEGRTLLAINGAEPTALPPFAAIILETDT
Km (purified protein): 295.2 ± 32.2 µM
